Experimental data from patent publication US20210380699A1 (published 2021).

T1: PD-L2-Fc (R&D Systems) (UniProt Q9BQ51 20-219, limits assumed)
T1 construct: not shown: Fc of the bought protein
T1 sequence (looked up): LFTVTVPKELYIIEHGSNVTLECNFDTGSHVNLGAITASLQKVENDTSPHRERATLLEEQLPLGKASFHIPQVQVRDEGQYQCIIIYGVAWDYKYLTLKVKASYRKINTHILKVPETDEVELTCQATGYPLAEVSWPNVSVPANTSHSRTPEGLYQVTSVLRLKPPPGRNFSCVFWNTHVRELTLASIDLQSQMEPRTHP


Legend:
[1] = target: T2, Human PD-L1 expressed on cells (human, UniProt Q9NZQ7 19-290); assay: flow cytometry on CHO hPD-L1 cells, competitor biotin-CD80-Fc, n = 2
T2 construct: One entry used for transfected and natively expressing cells; also called CHO-S hPD-L1; CHO human PD-L1
T2 sequence (Q9NZQ7 19-290 limits assumed): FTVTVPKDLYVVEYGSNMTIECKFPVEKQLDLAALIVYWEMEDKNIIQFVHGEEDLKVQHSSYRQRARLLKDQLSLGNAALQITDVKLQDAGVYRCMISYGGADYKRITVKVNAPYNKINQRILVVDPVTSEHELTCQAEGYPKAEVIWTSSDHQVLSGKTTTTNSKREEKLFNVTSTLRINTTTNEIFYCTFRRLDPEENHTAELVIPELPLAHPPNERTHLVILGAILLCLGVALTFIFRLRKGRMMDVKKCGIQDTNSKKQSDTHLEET
Protocol: (§1) 150 μL FACS buffer is added and cells washed as described above. […] Cells are incubated at 4° C. for 60 minutes. Cells are washed twice with 150 μL FACS buffer, centrifuging at 300 g for 3 minutes after each wash step and aspirating supernatant. Cells are fixed, washed and resuspended for analysis as above. APC signal intensity (geometric mean) is measured by flow cytometry using a Beckman Coulter CYTOFLEX instrument. Data is plotted as percentage of receptor binding.
(§2) All other steps are performed as per plate 2.

[2] = target: T2, Human PD-L1 expressed on cells; assay: flow cytometry on CHO hPD-L1 cells, competitor biotin-CD80-Fc, n = 1
Protocol: as §1, §2

[3] = target: T2, Human PD-L1 expressed on cells; assay: flow cytometry on CHO hPD-L1 cells, competitor biotin-PD-1-Fc, n = 1
Protocol: as §1

[4] = target: T3, Human PD-L1 His (human PD-L1 ECD with C-terminal His tag) (human, UniProt Q9NZQ7 19-238); assay: ELISA, biotin-PD-L1 to plate-bound PD-1, antibody titrated
T3 construct: Biotinylated in ELISA and AlphaScreen assays; also called hPD-L1-his; biotinylated PD-L1 his
T3 sequence (Q9NZQ7 19-238 limits assumed): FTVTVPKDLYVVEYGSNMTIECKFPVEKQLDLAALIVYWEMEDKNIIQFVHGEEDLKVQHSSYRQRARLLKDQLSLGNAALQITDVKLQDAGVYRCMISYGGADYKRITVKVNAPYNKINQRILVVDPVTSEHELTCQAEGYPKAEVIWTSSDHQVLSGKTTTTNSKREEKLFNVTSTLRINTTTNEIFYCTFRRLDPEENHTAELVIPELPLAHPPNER
Protocol: Excess protein was removed by washing with PBS-Tween (0.1% v/v) and the wells were blocked with 1% w/v bovine serum albumin (BSA, Sigma) in PBS for 1 hour at room temperature, after which plates were washed as described previously. […] The plate was incubated for 30 minutes before transferring 50 μL to the coated plates. The coated plates were incubated for 1 hour at room temperature. Excess protein was removed by washing with PBS-Tween (0.1% v/v). PD-L1 binding was detected using streptavidin labelled Europium (Perkin Elmer) diluted 1/1000 in DELFIA assay buffer (Perkin Elmer). Plates were washed with TBS (Tris buffered saline)-Tween (0.1% v/v) and 50 μL/well of DELFIA Enhancement solution (Perkin Elmer) was added to the plate. Time-resolved fluorescence was measured at 615 nm on an Envision plate reader (PerkinElmer).

[5] = target: T2, Human PD-L1 expressed on cells; assay: flow cytometry on CHO hPD-L1 cells, competitor biotin-PD-1-Fc
Protocol: Plates were centrifuged at 300×g for 3 minutes to supernatant aspirated. […] Cells were washed with 150 μL of PBS and centrifuged at 300 g for 3 minutes. Supernatant was aspirated and 150 μL PBS added. This wash step was repeated.

[6] = target: T2, Human PD-L1 expressed on cells; assay: flow cytometry on CHO hPD-L1 cells, competitor biotin-PD-1-Fc, n = 2
Protocol: as §1

[7] = target: T2, Human PD-L1 expressed on cells; assay: cell-based or functional assay
[8] = target: T2, Human PD-L1 expressed on cells; assay: cell-based or functional assay; remark: listed apart in the source
[9] = target: T3, Human PD-L1 His (human PD-L1 ECD with …); assay: SPR 37C, antibody captured, PD-L1 analyte
Protocol: (§3) Label-free surface plasmon resonance (SPR) analysis was carried out on the ProteOn XPR36 (BioRad) array SPR machine. An anti-human IgG capture surface was created on a GLC biosensor chip using a combination of anti-human Fc antibodies (Jackson Labs 09-005-008,109-006-008 and 309-006-008) by amine coupling. […] The data was analysed using the 1:1 model inherent to the ProteOn XPR36 analysis software.
(§4) Label-free surface plasmon resonance (SPR) analysis was performed as per Example 4, except the assay was performed at 37° C.

[10] = target: T4, Cyno PD-L1 FLAG (cynomolgus PD-L1 ECD with FLAG tag) (cynomolgus monkey); assay: SPR 37C, antibody captured, PD-L1 analyte
T4 construct: also called cynomolgus monkey PD-L1-FLAG
T4 sequence (chain, as listed by the source limits assumed): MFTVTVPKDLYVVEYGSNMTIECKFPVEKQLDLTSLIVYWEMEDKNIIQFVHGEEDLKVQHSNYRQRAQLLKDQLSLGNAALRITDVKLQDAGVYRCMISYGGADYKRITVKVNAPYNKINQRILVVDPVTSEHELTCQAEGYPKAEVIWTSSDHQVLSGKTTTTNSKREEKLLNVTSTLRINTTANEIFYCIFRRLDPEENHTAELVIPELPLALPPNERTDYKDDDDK
Protocol: as §3, §4

PD-L2-Fc (R&D Systems) = target: T1, PD-L2-Fc (R&D Systems); assay: DELFIA plate assay, biotinylated antibody on plate-bound PD-L2-Fc
Protocol: Excess protein was removed by washing with PBS-Tween (0.1% v/v) and the wells were blocked with 250 μL/well Pierce Protein Free Blocking Buffer (Thermo, 37572) for 1 hour, after which plates were washed as described previously. […] 100 μL each antibody dilution was added to the plates in duplicate and incubated for 1 hour at room temperature, before washing as stated above. Antibody binding was detected using streptavidin labelled Europium (Perkin Elmer) diluted 1/1000 in DELFIA Assay buffer (Perkin Elmer). Plates were washed with TBS (Tris buffered saline)-Tween (0.1% v/v) and 50 μL/well of DELFIA Enhancement solution (Perkin Elmer) was added to the plate. Time-resolved fluorescence was measured at 615 nm on an Envision plate reader (PerkinElmer).

[11] = target: T2, Human PD-L1 expressed on cells; assay: cell-based or functional assay; remark: listed apart in the source
[12] = target: T3, Human PD-L1 His (human PD-L1 ECD with …); assay: ELISA, biotin-PD-L1 to plate-bound CD80, antibody titrated
Protocol: (§5) Excess protein was removed by washing with PBS-Tween (0.1% v/v) and the wells were blocked with 1% w/v bovine serum albumin (BSA, Sigma) in PBS for 1 hour at room temperature, after which plates were washed with PBS-Tween as above. 60 μL of a titration (three-fold serial dilution) of antibody was added to a 96-well, non-binding plate diluted in ELISA assay buffer (PBS +0.1% BSA). […] The plate was incubated for 30 minutes before transferring 50 μL to the coated plates. The coated plates were incubated for 1 hour at room temperature. Excess protein was removed by washing with PBS-Tween (0.1% v/v). PD-L1 binding was detected using streptavidin labelled europium (Perkin Elmer) diluted 1/1000 in DELFIA assay buffer (Perkin Elmer). The plates were washed with TBS (Tris buffered saline)-Tween (0.1% v/v) and 50 μL/well of DELFIA Enhancement solution (Perkin Elmer) was added to the plate. Time-resolved fluorescence was measured at 615 nm on an Envision plate reader (PerkinElmer). Percentage specific binding was calculated as defined in Equation 3. IC50 values were determined using GraphPad Prism software by curve fitting using a four-parameter logistic equation (Equation 4). Values for KM121 antibodies are a mean of three independent experiments. Values for KM122 are from a single experiment.

[13] = target: T3, Human PD-L1 His (human PD-L1 ECD with …); assay: ELISA, biotin-PD-L1 to plate-bound PD-1, antibody titrated; remark: listed apart in the source
Protocol: as §5

Mouse PD-L1 ECD His = target: T5, Mouse PD-L1 ECD His (mouse, UniProt Q9EP73 19-239); assay: SPR 25C and 37C
T5 construct: also called mouse PD-L1 (his-tagged)
T5 sequence (Q9EP73 other isoform, or with tags, fused parts or gaps): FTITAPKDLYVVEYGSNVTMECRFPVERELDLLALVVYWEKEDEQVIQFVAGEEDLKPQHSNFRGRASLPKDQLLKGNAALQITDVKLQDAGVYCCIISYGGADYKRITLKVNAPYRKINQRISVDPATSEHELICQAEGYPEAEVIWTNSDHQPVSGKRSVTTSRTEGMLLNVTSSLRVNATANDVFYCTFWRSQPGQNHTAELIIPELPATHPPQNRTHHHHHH

[14] = target: T3, Human PD-L1 His (human PD-L1 ECD with …); assay: SPR 25C, antibody captured, PD-L1 analyte
Protocol: as §3

[15] = target: T4, Cyno PD-L1 FLAG (cynomolgus PD-L1 ECD …); assay: SPR 25C, antibody captured, PD-L1 analyte
Protocol: as §3

[16] = target: T3, Human PD-L1 His (human PD-L1 ECD with …); assay: SPR 37C, antibody captured, PD-L1 analyte; remark: listed apart in the source
[17] = target: T4, Cyno PD-L1 FLAG (cynomolgus PD-L1 ECD …); assay: SPR 37C, antibody captured, PD-L1 analyte; remark: listed apart in the source
[18] = target: T3, Human PD-L1 His (human PD-L1 ECD with …); assay: ELISA, biotin-PD-L1 to plate-bound CD80, antibody titrated; remark: listed apart in the source
Protocol: (§6) Excess protein was removed by washing with PBS-Tween (0.1% v/v) and the wells were blocked with 1% w/v bovine serum albumin (BSA, Sigma) in PBS for 1 hour at room temperature, after which plates were washed as described previously. 60 μL of a titration (three-fold dilutions from 100 nM) of antibody was added to a 96-well, non-binding plate diluted in ELISA assay buffer (PBS+0.1% BSA). […] The plate was incubated for 30 min before transferring 50 μL to the coated plates.
(§7) The coated plates were incubated for 1 hour at room temperature. Excess protein was removed by washing with PBS-Tween (0.1% v/v). PD-L1 binding was detected using streptavidin labelled Europium (Perkin Elmer) diluted 1/1000 in DELFIA assay buffer (Perkin Elmer). The plates were washed with TBS (Tris buffered saline)-Tween (0.1% v/v) and 50 μL/well of DELFIA Enhancement solution (Perkin Elmer) was added to the plate. The time-resolved fluorescence was measured at 615 nm on an Envision plate reader (PerkinElmer). Percentage specific binding was calculated as defined in Equation 3.

[19] = target: T3, Human PD-L1 His (human PD-L1 ECD with …); assay: SPR 25C, antibody captured, PD-L1 analyte; remark: listed apart in the source
Protocol: Label-free surface plasmon resonance (SPR) analysis was carried out on the ProteOn XPR36 (BioRad) array SPR machine. An anti-human IgG capture surface was created on a GLC biosensor chip using amine coupling of an anti-human IgG from GE Healthcare. […] The assay was carried out at 25° C. using HBS-EP (Teknova H8022). Buffer alone was used to reference the binding sensorgrams. The data was analysed using the 1:1 model inherent to the ProteOn XPR36 analysis software.

[20] = target: T3, Human PD-L1 His (human PD-L1 ECD with …); assay: ELISA, biotin-PD-L1 to plate-bound PD-1, antibody titrated; remark: listed apart in the source
Protocol: as §6, §7

IC50 [1]	IC50 [2]	IC50 [3]	IC50 [6]	mean EC50, IFNγ induction, monocyte-T cell co-culture [7]	EC50, IL-2 induction, murine T cell hybridoma assay, n = 1 [8]	EC50, IL-2 induction, murine T cell hybridoma assay, n = 2 [8]	EC50, IL-2 induction, murine T cell hybridoma assay, n = 3 [8]	EC50, ADCC reporter assay, n = 1 [11]	EC50, ADCC reporter assay, n = 2 [11]	EC50, ADCC reporter assay, n = 3 [11]	Binder	other results
1410 pM	1110 pM	890 pM	1410 pM	81 pM	240 pM	140 pM	170 pM	24.9 pM	15.3 pM	25.9 pM	84G09 (human IgG1) (antibody, V domains shown, also called clone 84609; lead antibody) VH: EVQLVESGGGLVQPGRSLRLSCAASGFTFDDYAMHWVRQTPGKGLEWVSGISWKSNIIGYADSVKGRFTISRDNAKNSLYLQMNSLRAEDTALYYCARDITGSGSYGWFDPWGQGTLVTVSS VL: DIQMTQSPSSLSASVGDRVTITCRASQSISSYLNWYQQKPGKAPKPLIYVASSLQSGVPSSFSGSGSGTDFTLTISSLQPEDFATYYCQQSYSNPITFGQGTRLEIKR	IC50 [4]: 7900 pM; IC50 [5]: 1820 pM; Kd [9]: 430 pM; Kd [10]: 520 pM; binding result (PD-L2-Fc (R&D Systems)): no binding (tested: 10 µg/mL top concentration)
1220 pM	1260 pM	950 pM	1220 pM	12 pM	590 pM	300 pM	180 pM	19.1 pM	15 pM	24.2 pM	414B06 (antibody, V domains shown, also called 414606) VH: EVHLVESGGGLVQPGGSLRLSCAASGFTFSSYWMNWVRQAPGKGLEWVANIKQDGSEKYYVDSVKGRFTVSRDNAKNSLYLQMNSLRAEDTAVYYCARVRQWSDYSDYWGQGTPVTVSS VL: DIQMTQSPSSVSASVGDRVTITCRASQGISSWLAWYQQKPGKAPKLLIYAASSLQSGVPSRFSGSGSGTDFTLTISSLQPEDFATYYCQQANSFPFTFGPGTKVDIKR	IC50 [12]: 1000 pM; IC50 [13]: 1840 pM; binding result (Mouse PD-L1 ECD His): no binding; mean fold increase IFNγ, monocyte-T cell co-culture [7]: 3.33 fold; Kd [14]: 172 pM; Kd [15]: 192 pM; Kd [16]: 778 pM; Kd [17]: 794 pM; max fold induction, ADCC reporter assay, n = 1 [11]: 10.9 fold; max fold induction, ADCC reporter assay, n = 2 [11]: 20.1 fold; max fold induction, ADCC reporter assay, n = 3 [11]: 31.5 fold
–	–	–	–	–	–	–	–	–	–	–	1D05 (control antibody of Examples 14 and 15, constant region not stated) (antibody, V domains shown, Unfused 1D05 run beside the immunocytokines; also called wild type antibody) VH: EVQLVESGGGLVQPGRSLRLSCAASGFTFDDYAMHWVRQVPGKGLEWVSGISWIRTGIGYADSVKGRFTIFRDNAKNSLYLQMNSLRAEDTALYYCAKDMKGSGTYGGWFDTWGQGTLVTVSS VL: not shown	IC50 [18]: 882 pM; Kd [19]: 171 pM; IC50 [20]: 1410 pM
